In data set [1] the target is T1, Cas9 (His-Cas9) (Streptococcus pyogenes, UniProt Q99ZW2 Q99ZW2:1-1368). The experiment in a line: EMSA; Cas9 without guide; 250 mM NaCl, 1 mM MgCl2, tRNA. To be noted: tags: His tag, expressed in E. coli; hairpin, 7-base loop. The method, then:
(§1) The interaction between Cas9 protein and each nucleic acid aptamer having inhibitory activity was analyzed by gel shift assay. The detailed experimental conditions are as follows.
(§2) Amounts of 2 pmol of Cas9 protein and 20 pmol of each nucleic acid aptamer (s21, s21-2, s21-mm2, tetra, and St2-1SA (aptamer against streptavidin)) were incubated at normal temperature for 30 minutes in a binding buffer (20 mM Tris/HCl pH 8.0, 250 mM NaCl, 1 mM MgCl₂, 2.5% glycerol, 0.05% Tween-20, and 0.05 mg/ml tRNA). Then, the obtained product was electrophoresed on 8% acrylamide gel, and the gel was stained with SYBR Gold (Thermo Fisher Scientific Inc.), followed by analysis with Bio-Rad ChemiDoc XRS image analysis system (Bio-Rad Laboratories, Inc.). The sequence of St2-1SA is as described below (Table 13).

Data set [2] addresses T1, Cas9 (His-Cas9). The experiment in a line: EMSA; no complex band; 250 mM NaCl, 1 mM MgCl2, tRNA. The note with it: tags: His tag, expressed in E. coli; hairpin. The method, then:
as §1, §2
For orientation: Mobility shift assays separate free from complexed probe on a gel.

For data set [3], the target named is T1, Cas9 (His-Cas9). The experiment in a line: EMSA; negative control; no complex band. To be noted: tags: His tag, expressed in E. coli. The method, then: as §1, §2
The target of data set [4] is T1, Cas9 (His-Cas9). Kind of data set: SPR; 5'-biotin s21 immobilized; Cas9 without guide; 20 mM Tris pH 8.0, 150 mM NaCl, 1 mM MgCl2. The note with it: tags: His tag, expressed in E. coli; hairpin (stem-loop). As for the experimental part: In order to calculate the dissociation constant (Kd) between Cas9 protein and each nucleic acid aptamer, surface plasmon resonance analysis was conducted. The detailed experimental approach was as follows.
5′-Biotinylated s21 was prepared and was immobilized on a streptavidin sensor chip (GE Healthcare Japan Corp.). Then, different concentrations (2.5 nM, 5 nM, 10 nM, and 20 nM) of Cas9 protein were loaded in a running buffer (20 mM Tris/HCl pH 8.0, 150 mM NaCl, 1 mM MgCl₂, and 0.005% Tween-20) to obtain sensorgrams. Kd was calculated with Biacore evaluation software package (GE Healthcare Japan Corp., Ver 2.0). Tetra was used as a control to conduct a similar test.

We go through four molecules from patent US20200255836, “NUCLEIC ACID APTAMER FOR INHIBITING ACTIVITY OF GENOME-EDITING ENZYME” (NATIONAL INSTITUTE OF ADVANCED INDUSTRIAL SCIENCE AND …, published 2020).

Broadly, the Kd is the concentration at which binding is half-saturated. Lower therefore signals tighter binding.

T1 sequence (Q99ZW2 whole entry, one chain of several): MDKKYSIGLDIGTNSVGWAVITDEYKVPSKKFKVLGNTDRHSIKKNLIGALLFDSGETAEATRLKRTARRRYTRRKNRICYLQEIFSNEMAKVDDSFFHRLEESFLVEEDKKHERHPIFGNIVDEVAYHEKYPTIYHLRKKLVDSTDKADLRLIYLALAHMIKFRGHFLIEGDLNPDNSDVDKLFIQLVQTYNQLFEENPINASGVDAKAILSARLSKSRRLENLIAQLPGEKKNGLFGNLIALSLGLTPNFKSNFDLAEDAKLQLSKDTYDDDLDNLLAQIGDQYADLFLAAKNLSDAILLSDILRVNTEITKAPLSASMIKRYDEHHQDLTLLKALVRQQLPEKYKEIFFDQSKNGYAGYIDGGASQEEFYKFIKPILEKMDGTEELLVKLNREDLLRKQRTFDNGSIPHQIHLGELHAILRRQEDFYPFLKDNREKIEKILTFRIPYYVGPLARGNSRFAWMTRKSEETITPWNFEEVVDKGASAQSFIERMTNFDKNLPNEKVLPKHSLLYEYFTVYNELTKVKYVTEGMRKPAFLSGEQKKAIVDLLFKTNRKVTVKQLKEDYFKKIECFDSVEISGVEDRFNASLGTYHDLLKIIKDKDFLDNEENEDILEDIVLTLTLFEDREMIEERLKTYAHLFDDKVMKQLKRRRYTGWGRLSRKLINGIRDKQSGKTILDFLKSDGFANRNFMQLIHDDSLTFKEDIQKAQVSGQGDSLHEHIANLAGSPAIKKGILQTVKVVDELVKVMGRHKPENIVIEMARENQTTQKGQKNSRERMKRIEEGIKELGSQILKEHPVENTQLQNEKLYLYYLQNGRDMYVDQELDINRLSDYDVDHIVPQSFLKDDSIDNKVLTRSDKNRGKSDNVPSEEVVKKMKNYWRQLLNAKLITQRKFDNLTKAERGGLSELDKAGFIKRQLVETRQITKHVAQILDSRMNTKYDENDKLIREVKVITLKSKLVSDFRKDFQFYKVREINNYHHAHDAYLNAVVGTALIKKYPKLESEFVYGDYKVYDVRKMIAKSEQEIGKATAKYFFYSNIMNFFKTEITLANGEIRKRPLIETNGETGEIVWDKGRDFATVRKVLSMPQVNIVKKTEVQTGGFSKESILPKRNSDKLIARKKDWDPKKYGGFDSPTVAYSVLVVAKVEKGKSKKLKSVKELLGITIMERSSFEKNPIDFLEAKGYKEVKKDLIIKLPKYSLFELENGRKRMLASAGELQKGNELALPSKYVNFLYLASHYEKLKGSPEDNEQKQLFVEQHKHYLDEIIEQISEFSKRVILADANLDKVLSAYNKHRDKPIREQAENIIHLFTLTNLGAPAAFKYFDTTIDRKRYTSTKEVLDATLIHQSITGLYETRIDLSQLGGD

GAGGCTCTCACATCGCGCCTTTCGGTGTGAGAGCCTC (ssDNA) [s21-2]: the binding result in data set [1] is on record as “binds”. For the molecule GAGGCTCTCACAGCGCGCCTTTCGTTGTGAGAGCCTC (ssDNA) [s21-2mm2], the binding result in data set [2] is on record as “no binding”.

As to ATTGACCGCTGTGTGACGCAACACTCAAT (ssDNA) [St2-1SA (streptavidin aptamer)], the binding result in data set [3] was “no binding”. As to GAGGCTCTCACATCGCGCCTTTCCCCAGCTTTCGGTGTGAGAGCCTC (ssDNA) [s21], the Kd in data set [4] was 0.57 nM.
